This note sets out measurements from patent publication US20230416365A1 (Hoffmann-La Roche, published 2023).

Positions count from the first letter of the chain named. Where two headings read alike, the source gives them in different places.

Assay [1] concerns the target T1, N(A2B2)A-avi-His (biotinylated at the avi tag).
T1 construct: also called biotinylated N(A2B2)A-avi-His
T1 chain: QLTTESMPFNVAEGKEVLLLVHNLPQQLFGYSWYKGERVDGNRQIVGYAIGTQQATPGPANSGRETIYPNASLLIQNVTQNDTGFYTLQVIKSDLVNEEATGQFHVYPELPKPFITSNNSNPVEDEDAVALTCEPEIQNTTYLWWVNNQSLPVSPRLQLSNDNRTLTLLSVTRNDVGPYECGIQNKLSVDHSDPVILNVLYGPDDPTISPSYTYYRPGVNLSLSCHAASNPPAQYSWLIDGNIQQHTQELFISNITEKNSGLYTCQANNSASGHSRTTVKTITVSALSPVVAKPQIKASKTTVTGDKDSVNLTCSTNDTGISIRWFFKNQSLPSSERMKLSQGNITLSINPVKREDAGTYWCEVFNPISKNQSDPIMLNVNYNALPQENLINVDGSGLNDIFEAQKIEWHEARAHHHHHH
Put plainly: SPR, ProteOn, antigen on NLC chip, purified Fab as analyte.

In assay [2] the target is T2, NA(B2)A-avi-His (biotinylated at the avi tag).
T2 chain: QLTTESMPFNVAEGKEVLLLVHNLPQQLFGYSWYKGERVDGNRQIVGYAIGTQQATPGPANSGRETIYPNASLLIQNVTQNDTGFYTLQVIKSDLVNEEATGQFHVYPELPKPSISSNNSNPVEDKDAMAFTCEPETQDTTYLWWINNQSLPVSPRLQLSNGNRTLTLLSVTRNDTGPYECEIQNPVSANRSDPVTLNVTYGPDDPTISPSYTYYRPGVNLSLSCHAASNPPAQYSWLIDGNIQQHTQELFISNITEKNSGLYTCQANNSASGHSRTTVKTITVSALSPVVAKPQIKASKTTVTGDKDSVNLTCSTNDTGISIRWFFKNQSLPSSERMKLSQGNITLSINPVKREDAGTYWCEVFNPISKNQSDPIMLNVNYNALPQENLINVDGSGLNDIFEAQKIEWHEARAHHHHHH
Put plainly: SPR, ProteOn, 2000 RU NA(B2)A-avi-His on NLC chip, Fab in bacterial supernatant. Background: SPR reads the build-up and loss of mass on a sensor chip optically.

In assay [3] the target is T1, N(A2B2)A-avi-His. The assay is described as follows: SPR off-rate, ProteOn, antigen on NLC chip, Fab in bacterial supernatant.
Assay [4] concerns the target T3, human CD28 on CHO cells (parental cell line CHO-k1 ATCC #CCL-61, modified to stably overexpress human CD28) (human, UniProt P10747 19-220).
T3 construct: also called hu CD28; CHO-hCD28
Put plainly: binding to CHO cells expressing human CD28 (by the table's title).

Assay [5] addresses T4, biotinylated huCD28-Fc (dimeric CD28-Fc construct with a monovalent biotinylated avi-tag) (human, UniProt P10747 19-152, biotinylated at the C-terminal avi tag).
T4 construct: not shown: hum IgG1 Fc fragment with hole and PG-LALA mutations; hum IgG1 Fc fragment with knob and PG-LALA mutations
The assay is described as follows: SPR, ProteOn XPR36, huCD28-Fc on NLC chip, bispecific as analyte.

Assay [6] concerns the target T5, human FAP on 3T3-huFAP cells (clone 19) (human, UniProt Q12884 1-760). Put plainly: flow cytometry on 3T3-huFAP cells, FAP-CD28 1+1 constructs, MFI (PE).
For assay [7], the target named is T5, human FAP on 3T3-huFAP cells (clone 19). The description is as above. This is another data set of the same source.

B1: P001.177 Fab (Fab, V domains shown)
VH: EVQLLESGGGLVQPGGSLRLSCAASGFYFTDYYMNWVRQAPGKGLEWLGFISNKANAYTTEYSASVKGRFTISRDKSKNTLYLQMNSLRAEDTATYYCTRDRGLRFYFDYWGQGTTVTVSS
VL: EIVLTQSPATLSLSPGERATLSCRASSSVTYIHWYQQKPGQAPRSWIYATSNLASGIPARFSGSGSGTDFTLTISSLEPEDFAVYYCQHWSSKPPTFGQGTKLEIK
notes: Fab from E. coli
On to B1, for which, in assay [1], the Kd (commonly the concentration at which binding is half-saturated) was 0.29 nM; the koff – broadly, the rate constant with which the complex falls apart – came to 7.85e-05 s⁻¹; the kon (as a rule, a measure of how fast the partners come together) came to 267000 M⁻¹ s⁻¹. Moreover, the binding result in assay [2] is reported as “no binding”. The same molecule gave a koff in assay [3] of 9.81e-05 s⁻¹.

B2: P006.038 Fab (Fab, V domains shown)
VH: B1 VH with Y28T, S52G, L104I, Y107G
VL: B1 VL with K93V
notes: Fab from E. coli
In assay [1], B2 registered a Kd of 0.25 nM, a koff of 5.78e-05 s⁻¹ and a kon of 225000 M⁻¹ s⁻¹. In assay [2], the binding result is “no binding”. In assay [3], the koff came to 7.41e-05 s⁻¹.

B3: P005.103 Fab (Fab, V domains shown)
VH: B1 VH with Y28T, S52G, L104I
VL: B1 VL with K93I, P94S
notes: Fab from E. coli
In assay [1], B3 returned a Kd of 0.5 nM, a koff of 4.99e-05 s⁻¹ and a kon of 100000 M⁻¹ s⁻¹. The binding result in assay [2] is given as “no binding”. In addition, the koff in assay [3] came to 5.37e-05 s⁻¹.

B4: P002.139 Fab (Fab, V domains shown)
VH: B1 VH with Y33A, F50V
VL: B1 VL with R24H
notes: Fab from E. coli
In assay [1], B4 had a Kd of 0.63 nM, a koff of 6.53e-05 s⁻¹ and a kon of 105000 M⁻¹ s⁻¹. The binding result in assay [2] is listed as “no binding”. The same molecule displayed a koff in assay [3] of 6.47e-05 s⁻¹.

B5: P005.097 Fab (Fab, V domains shown)
VH: B1 VH with Y28T, S52G, Y107S
VL: B1 VL with K93Q
notes: Fab from E. coli
B5: in assay [1], the equilibrium dissociation constant (Kd) is 0.91 nM, the koff stood at 8.54e-05 s⁻¹ and the kon was determined as 94000 M⁻¹ s⁻¹. Besides, the binding result in assay [2] is reported as “no binding”. The koff in assay [3] is 8.87e-05 s⁻¹.

B6: P005.102 Fab (Fab, V domains shown)
VH: B1 VH with Y28T, S52G, L104I, Y107Q
VL: B1 VL with P94S
notes: Fab from E. coli
Consider B6, for which, in assay [1], the affinity, expressed as Kd, was 0.29 nM; the koff was found to be 3.92e-05 s⁻¹; the on-rate constant (kon) amounted to 134000 M⁻¹ s⁻¹. The binding result in assay [2] is on record as “no binding”. This molecule also registered a koff in assay [3] of 4.24e-05 s⁻¹.

B7: FAP (4B9) - CD28 (CD28(SA)_Variant 15) 1+1 (bispecific antibody, human IgG1, kappa, L234A L235A)
heavy 1: EIVLTQSPGTLSLSPGERATLSCRASQSVTSSYLAWYQQKPGQAPRLLINVGSRRATGIPDRFSGSGSGTDFTLTISRLEPEDFAVYYCQQGIMLPPTFGQGTKVEIKSSASTKGPSVFPLAPSSKSTSGGTAALGCLVKDYFPEPVTVSWNSGALTSGVHTFPAVLQSSGLYSLSSVVTVPSSSLGTQTYICNVNHKPSNTKVDKKVEPKSCDKTHTCPPCPAPEAAGGPSVFLFPPKPKDTLMISRTPEVTCVVVDVSHEDPEVKFNWYVDGVEVHNAKTKPREEQYNSTYRVVSVLTVLHQDWLNGKEYKCKVSNKALGAPIEKTISKAKGQPREPQVCTLPPSRDELTKNQVSLSCAVKGFYPSDIAVEWESNGQPENNYKTTPPVLDSDGSFFLVSKLTVDKSRWQQGNVFSCSVMHEALHNHYTQKSLSLSP
light 1: EVQLLESGGGLVQPGGSLRLSCAASGFTFSSYAMSWVRQAPGKGLEWVSAIIGSGASTYYADSVKGRFTISRDNSKNTLYLQMNSLRAEDTAVYYCAKGWFGGFNYWGQGTLVTVSSASVAAPSVFIFPPSDEQLKSGTASVVCLLNNFYPREAKVQWKVDNALQSGNSQESVTEQDSKDSTYSLSSTLTLSKADYEKHKVYACEVTHQGLSSPVTKSFNRGEC
heavy 2: not shown
light 2: not shown
notes: huIgG1 PG-LALA CrossFab 1+1; also called P1AE3134
As to B7, in assay [4], the Kd came to 7.1 nM. In assay [5], this molecule registered a Kd of 7.1 nM, a koff of 0.00184 s⁻¹ and a kon of 259000 M⁻¹ s⁻¹. Also, the binding result in assay [6] is on record as “binds”.

B8: FAP (4B9) - CD28 (CD28(SA)_Variant 12) 1+1 (bispecific antibody, human IgG1, kappa, L234A L235A)
heavy 1: B7 heavy 1
light 1: B7 light 1
heavy 2: not shown
light 2: DIQMTQSPSSLSASVGDRVTITCRASQNIYVWLNWYQQKPGKAPKLLIYKASNLYSGVPSRFSGSRSGTDFTLTISSLQPEDFATYYCQQGQTYPYTFGQGTKLEIKRTVAAPSVFIFPPSDRKLKSGTASVVCLLNNFYPREAKVQWKVDNALQSGNSQESVTEQDSKDSTYSLSSTLTLSKADYEKHKVYACEVTHQGLSSPVTKSFNRGEC
notes: huIgG1 PG-LALA CrossFab 1+1; also called P1AE3133
For the molecule B8, the Kd in assay [4] came out at 1 nM. In assay [5], this molecule returned a Kd of 1 nM, a koff of 0.000267 s⁻¹ and a kon of 261000 M⁻¹ s⁻¹. Moreover, the binding result in assay [6] is given as “binds”.

B9: FAP (4B9) - CD28 (CD28(SA)_Variant 19) 1+1 (bispecific antibody, human IgG1, kappa, L234A L235A)
heavy 1: B7 heavy 1
light 1: B7 light 1
heavy 2: not shown
light 2: not shown
notes: huIgG1 PG-LALA CrossFab 1+1; also called P1AE3137
With B9, in assay [4], the Kd stood at 1.1 nM. Also, in assay [7], the binding result was “binds”. In assay [5], the Kd is 1.1 nM, the koff was determined as 0.000304 s⁻¹ and the kon is 280000 M⁻¹ s⁻¹.

B10: FAP (4B9) - CD28 (CD28(SA)_Variant 17) 1+1 (bispecific antibody, human IgG1, kappa, L234A L235A)
heavy 1: B7 heavy 1
light 1: B7 light 1
heavy 2: not shown
light 2: not shown
notes: huIgG1 PG-LALA CrossFab 1+1; also called P1AE3136
With B10, in assay [4], the dissociation constant (Kd) came out at 3.7 nM. Moreover, in assay [5], binding was put at a Kd of 3.7 nM, the koff is 0.00125 s⁻¹ and the kon came to 338000 M⁻¹ s⁻¹. Besides, in assay [6], the binding result is recorded as “binds”.

B11: FAP (4B9)-CD28 (CD28(SA)_Variant 8) 1+1 (bispecific antibody, human IgG1, kappa, L234A L235A)
heavy 1: B7 heavy 1
light 1: B7 light 1
heavy 2: not shown
light 2: not shown
notes: huIgG1 PG-LALA CrossFab 1+1; also called P1AE3131
Turning to B11, in assay [4], the Kd was determined as 23.8 nM. Further, in assay [5], the affinity, expressed as Kd, was 23.8 nM; the koff was found to be 0.00521 s⁻¹; the kon was found to be 219000 M⁻¹ s⁻¹. Also, the binding result in assay [6] was “binds”.

B12: FAP (4B9) - CD28 (CD28(SA)_Variant 25) 1+1 (bispecific antibody, human IgG1, kappa, L234A L235A)
heavy 1: B7 heavy 1
light 1: B7 light 1
heavy 2: not shown
light 2: not shown
notes: huIgG1 PG-LALA CrossFab 1+1; also called P1AE3139
As to B12, in assay [4], the Kd came to 1.7 nM. The binding result in assay [7] was “binds”. Besides, in assay [5], binding was put at a Kd of 1.7 nM, the koff stood at 0.000396 s⁻¹ and the kon was 238000 M⁻¹ s⁻¹.

B13: FAP (4B9) - CD28 (CD28(SA)_Variant 23) 1+1 (bispecific antibody, human IgG1, kappa, L234A L235A)
heavy 1: B7 heavy 1
light 1: B7 light 1
heavy 2: not shown
light 2: not shown
notes: huIgG1 PG-LALA CrossFab 1+1; also called P1AE3138
As for B13, in assay [4], the Kd came out at 16.3 nM. In addition, the binding result in assay [7] is reported as “binds”. Besides, in assay [5], the affinity, expressed as Kd, was 16.3 nM; the koff was 0.00342 s⁻¹; the kon stood at 211000 M⁻¹ s⁻¹.

B14: FAP (4B9) - CD28 (CD28(SA)_Variant 29) 1+1 (bispecific antibody, human IgG1, kappa, L234A L235A)
heavy 1: B7 heavy 1
light 1: B7 light 1
heavy 2: not shown
light 2: not shown
notes: huIgG1 PG-LALA CrossFab 1+1; also called P1AE3141
Turning to B14, the Kd in assay [4] was determined as 1.1 nM. Also, the binding result in assay [7] is given as “binds”. For the same molecule, in assay [5], binding was characterised by a dissociation constant (Kd) of 1.1 nM, the koff amounted to 0.000307 s⁻¹ and the kon was found to be 272000 M⁻¹ s⁻¹.
